Data: patent publication US20230374071A1, “COMPOSITIONS FOR INDUCING URINARY VOIDING AND DEFECATION” (Dignify Therapeutics, LLC, priority 2020, published 2023)
Starred links: 1 amine or outer side, 2 acyl side, 3 side chain; linkers in the order of their positions; H or OH if unused. Non-standard residues stand in square brackets, D forms with d. No end group written: not given here. gc = gamma constrained Gly-(R-gamma-lactam)-Leu moiety, (S)-2-((R)-3-amino)-2-oxopyrrolidin-1-yl)-4-methylpentanoyl, between Val and the C-terminal residue, CC(C)C[C@@H](C(=O)[*:2])N1CC[C@@H](N[*:1])C1=O; Nle = CCCC[C@H](N)C(=O)O; βAla = NCCC(=O)O

T1: human neurokinin 2 receptor (human, UniProt P21452 1-398)
T1 sequence (looked up): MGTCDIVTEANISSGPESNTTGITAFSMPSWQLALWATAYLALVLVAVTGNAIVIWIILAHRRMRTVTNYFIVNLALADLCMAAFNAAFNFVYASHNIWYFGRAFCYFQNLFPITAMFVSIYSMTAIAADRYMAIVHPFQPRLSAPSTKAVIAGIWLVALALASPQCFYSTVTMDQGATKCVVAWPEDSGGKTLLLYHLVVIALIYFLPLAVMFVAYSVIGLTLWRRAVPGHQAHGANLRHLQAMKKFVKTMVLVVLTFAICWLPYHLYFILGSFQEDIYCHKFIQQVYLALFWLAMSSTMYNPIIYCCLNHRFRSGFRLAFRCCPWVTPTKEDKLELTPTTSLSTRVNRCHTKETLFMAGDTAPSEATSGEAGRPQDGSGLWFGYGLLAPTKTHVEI


Key:
Assay in all cases: cell-based or functional assay
[1] = target: T1, human neurokinin 2 receptor
[2] = target: T2, human neurokinin 1 receptor (human, UniProt P25103 1-407)
[3] = target: T1, human neurokinin 2 receptor; remark: listed apart in the source
[4] = target: T2, human neurokinin 1 receptor; remark: listed apart in the source

T2 sequence (P25103 whole entry): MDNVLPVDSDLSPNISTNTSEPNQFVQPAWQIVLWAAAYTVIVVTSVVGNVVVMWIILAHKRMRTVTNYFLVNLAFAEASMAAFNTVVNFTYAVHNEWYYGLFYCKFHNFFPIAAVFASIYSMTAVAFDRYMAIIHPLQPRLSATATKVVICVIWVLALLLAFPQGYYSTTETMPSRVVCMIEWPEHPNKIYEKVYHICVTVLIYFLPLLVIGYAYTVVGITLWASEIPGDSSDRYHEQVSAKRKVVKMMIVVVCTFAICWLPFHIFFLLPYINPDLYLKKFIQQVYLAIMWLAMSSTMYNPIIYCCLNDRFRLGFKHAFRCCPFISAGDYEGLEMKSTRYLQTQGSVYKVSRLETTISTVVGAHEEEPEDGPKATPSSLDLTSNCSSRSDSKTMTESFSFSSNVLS

| NK2R/NK1R selectivity ratio [1] [fold] | hNK2R pEC50 (intracellular calcium mobilization, FLIPR, CHO cells) [1] | hNK1R pEC50 (intracellular calcium mobilization, FLIPR, CHO cells) [2] | maximal calcium response [3] | maximal calcium response [4] | Binder |
| --- | --- | --- | --- | --- | --- |
| 90 | 9.71 | 7.76 | ≥ 85 % maximal response compared to Neurokinin A | ≥ 85 % maximal response compared to Substance P | DRFV[gc]M-NH2 (N-terminus assumed; SMILES CSCC[C@H](NC(=O)[C@H](CC(C)C)N1CC[C@@H](NC(=O)[C@@H](NC(=O)[C@H](Cc2ccccc2)NC(=O)[C@H](CCCNC(=N)N)NC(=O)[C@@H](N)CC(=O)O)C(C)C)C1=O)C(N)=O) [Compound E (Asp-Arg-Phe-Val-gc-Met-NH2)] |
| 23 | 7.88 | 6.52 | ≥ 85 % maximal response compared to Neurokinin A | ≥ 85 % maximal response compared to Substance P | KDSFV[βAla]L[Nle]-NH2 (N-terminus assumed; SMILES CCCC[C@H](NC(=O)[C@H](CC(C)C)NC(=O)CCNC(=O)[C@@H](NC(=O)[C@H](Cc1ccccc1)NC(=O)[C@H](CO)NC(=O)[C@H](CC(=O)O)NC(=O)[C@@H](N)CCCCN)C(C)C)C(N)=O) [Compound J (Lys-Asp-Ser-Phe-Val-(β-Ala)-Leu-Nle-NH2)] |
| 206 | 8.11 | 5.79 | ≥ 85 % maximal response compared to Neurokinin A | ≥ 73 % maximal response compared to Substance P | KDSFV[gc][Nle]-NH2 (N-terminus assumed; SMILES CCCC[C@H](NC(=O)[C@H](CC(C)C)N1CC[C@@H](NC(=O)[C@@H](NC(=O)[C@H](Cc2ccccc2)NC(=O)[C@H](CO)NC(=O)[C@H](CC(=O)O)NC(=O)[C@@H](N)CCCCN)C(C)C)C1=O)C(N)=O) [Compound G (Lys-Asp-Ser-Phe-Val-gc-Nle-NH2)] |
| 93 | 8.6 | 6.63 | ≥ 85 % maximal response compared to Neurokinin A | ≥ 85 % maximal response compared to Substance P | DRFV[gc][Nle]-NH2 (N-terminus assumed; SMILES CCCC[C@H](NC(=O)[C@H](CC(C)C)N1CC[C@@H](NC(=O)[C@@H](NC(=O)[C@H](Cc2ccccc2)NC(=O)[C@H](CCCNC(=N)N)NC(=O)[C@@H](N)CC(=O)O)C(C)C)C1=O)C(N)=O) [Compound F (Asp-Arg-Phe-Val-gc-Nle-NH2)] |
